The record followed here is paper PMC3760020.

In the assay the target is T1, GFP-p73α wild type, O15350.
T1 chain: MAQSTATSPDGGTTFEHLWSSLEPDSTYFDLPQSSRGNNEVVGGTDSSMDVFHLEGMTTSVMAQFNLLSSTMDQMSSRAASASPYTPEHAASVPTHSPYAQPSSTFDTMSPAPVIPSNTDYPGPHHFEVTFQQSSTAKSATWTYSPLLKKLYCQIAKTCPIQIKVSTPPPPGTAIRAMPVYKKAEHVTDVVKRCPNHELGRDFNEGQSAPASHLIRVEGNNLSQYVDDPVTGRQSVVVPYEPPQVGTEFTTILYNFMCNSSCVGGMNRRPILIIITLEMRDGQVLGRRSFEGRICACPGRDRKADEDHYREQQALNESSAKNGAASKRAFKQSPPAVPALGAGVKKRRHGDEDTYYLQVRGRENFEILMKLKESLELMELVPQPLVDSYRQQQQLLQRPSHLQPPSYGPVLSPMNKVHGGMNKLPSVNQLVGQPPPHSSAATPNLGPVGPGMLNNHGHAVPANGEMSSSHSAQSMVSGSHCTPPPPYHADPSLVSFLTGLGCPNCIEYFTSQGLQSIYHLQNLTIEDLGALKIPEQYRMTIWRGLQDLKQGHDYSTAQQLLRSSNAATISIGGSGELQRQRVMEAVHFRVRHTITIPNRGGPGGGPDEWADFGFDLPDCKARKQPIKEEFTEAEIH
Kind of assay: cross-linking. The settings on record: remark: other sources report otherwise.

B1: GFP-p73α wild type, O15350-1 1-636 (natural protein)
chain: T1 chain
In the case of B1, the stoichiometry N (as a rule, a count of units in the complex or per binding partner) amounted to 4.
